In patent US11499162B2, “Plants having increased tolerance to herbicides” (BASF SE, priority 2016, dated 2022):
Substitutions are numbered along the chain they refer to. Names may count otherwise.

Type: biochemical
Settings: pH 7.2
Description: EXAMPLE 3: Protein Purification. TriA and variants thereof were produced in E. coli BL21(DE3) Gold (Agilent Technologies, Germany). Therefore E. coli was transformed with appropriate pET24d N-HIS tag expression vector and chaperone plasmid pGro7 (chaperones groEL and groES). Bacterial strains were grown at 30° C. in 100 mL LB for 20 h and protein expression induced with 0.1 mM IPTG at 25° C. for 20 hs. Cells were harvested by centrifugation at 3000 rpm at 4° C. for 20 min, resuspended in Bug Buster protein extraction reagent (Novagen, Germany) according to manufactures instructions. Lysates were clarified by centrifugation. Samples of bovine serum albumin ([…]) were loaded onto each gel analyzed by densitometry to provide an internal standard. Protein determinations were verified using Coomassie protein assay dye, according to manufactures instruction (Thermo Scientific; USA). The HIS-tagged enzymes were purified by metal ion affinity chromatography using Ni-IDA 1000 kit (Macherey-Nagel, Germany) following manufactures instructions. Protein purity was accessed by SDS-PAGE using NuPAGE Novex 4-12% Bis-Tris pre-cast gels (Life Technologies; USA) stained with Coomassie Brilliant Blue (Serva, Germany). Protein concentrations were estimated by measuring absorbance at 280 nm using Lambda Bio+(Perkin Elmer, USA). EXAMPLE 4: Enzyme kinetics. Resting cell suspension containing triA gene were incubated with various azines, melamine and atrazine and the culture filtrate was analyzed by UPLC-HR-MS. Substrates were obtained either from Sigma-Aldrich or synthesized internally. Synthetic standards and enzyme reaction products were analysed by UPLC-HR-MS (Thermo/Dionex UPLC UltiMate3000 coupled to a QExactive high resolution mass spectrometer). A Waters Acquity HSS T3 column (2.1 mm; 100 mm; […]) was used with a mobile phase water/acetonitrile (0.1% formic acid) with a flow rate of […]. Enzymes were used solved 25 mM sodium phosphate buffer (pH 7.2) with substrate concentration in the range of 1 nM to 10 nM at 30° C. Over time, the original azine peak disappeared whereas the formed OH-Metabolite (reaction product) increased. The product was identified by determination of the exact formula and by analysis of the accurate MS-MS fragments. Moreover for some of the formed products authentic standards were co-eluted. Degradation in % was calculated against the cells harboring the empty vector as control.

B1: D248EE251D: mutated TriA variant of SEQ ID NO: 2 (protein)
chain: MQTLSIQHGTLVTMDQYRRVLGDSWVHVQDGRIVALGVHAESVPPPADRVIDARGKVVLPGFINAHTHVNQILLRGGPSHGRQLYDWLFNVLYPGQKAMRPEDVAVAVRLYCAEAVRSGITTINDNADSAIYPGNIEAAMAVYGEVGVRVVYARMFFDRMDGRIQGYVDALKARSPQVELCSIMEETAVAKDRITALSDQYHGTAGGRISVWPAPAITPAVTVEGMRWAQAFARDRAVMWTLHMAESEHDDRLHWMSPAEYMECYGLLDERLQVAHCVYFDRKDVRLLHRHNVKVASQVVSNAYLGSGVAPVPEMVERGMAVGIGTDDGNCNDSVNMIGDMKFMAHIHRAVHRDADVLTPEKILEMATIDGARSLGMDHEIGSIETGKRADLILLDLRHPQTTPHHHLAATIVFQAYGNEVDTVLIDGNVVMENRRLSFLPPERELAFLEEAQSRATAILQRANMVANPAWRSL
modifications: Pseudomonas
With B1 the “Degradation in % of 6-cyclopentyl-N4-(2,3,4,5,6-pentafluorophenyl)-1,3,5-triazine-2,4-diamine” value was 2% and the “Degradation in % of Melamine” value was 1%.

B2: Q298C: mutated TriA variant of SEQ ID NO: 2 (protein)
chain: B1 chain with E248D, D251E, Q298C
modifications: Pseudomonas
With B2 the “Degradation in % of 6-cyclopentyl-N4-(2,3,4,5,6-pentafluorophenyl)-1,3,5-triazine-2,4-diamine” value was 23% and the “Degradation in % of Melamine” value was 100%.

B3: Q298N: mutated TriA variant of SEQ ID NO: 2 (protein)
chain: B1 chain with E248D, D251E, Q298N
modifications: Pseudomonas
With B3 the “Degradation in % of 6-cyclopentyl-N4-(2,3,4,5,6-pentafluorophenyl)-1,3,5-triazine-2,4-diamine” value was 0% and the “Degradation in % of Melamine” value was 5%.

B4: Q298T: mutated TriA variant of SEQ ID NO: 2 (protein)
chain: B1 chain with E248D, D251E, Q298T
modifications: Pseudomonas
In the case of B4, the “Degradation in % of 6-cyclopentyl-N4-(2,3,4,5,6-pentafluorophenyl)-1,3,5-triazine-2,4-diamine” value is reported as 0% and the “Degradation in % of Melamine” value is reported as 63%.

B5: Q298S: mutated TriA variant of SEQ ID NO: 2 (protein)
chain: B1 chain with E248D, D251E, Q298S
modifications: Pseudomonas
With B5 the “Degradation in % of 6-cyclopentyl-N4-(2,3,4,5,6-pentafluorophenyl)-1,3,5-triazine-2,4-diamine” value was 0% and the “Degradation in % of Melamine” value was 83%.

B6: S301A: mutated TriA variant of SEQ ID NO: 2 (protein)
chain: B1 chain with E248D, D251E, S301A
modifications: Pseudomonas
With B6 the “Degradation in % of 6-cyclopentyl-N4-(2,3,4,5,6-pentafluorophenyl)-1,3,5-triazine-2,4-diamine” value was 6% and the “Degradation in % of Melamine” value was 0%.

B7: S301T: mutated TriA variant of SEQ ID NO: 2 (protein)
chain: B1 chain with E248D, D251E, S301T
modifications: Pseudomonas
With B7 the “Degradation in % of 6-cyclopentyl-N4-(2,3,4,5,6-pentafluorophenyl)-1,3,5-triazine-2,4-diamine” value was 1% and the “Degradation in % of Melamine” value was 0%.

B8: S301V: mutated TriA variant of SEQ ID NO: 2 (protein)
chain: B1 chain with E248D, D251E, S301V
modifications: Pseudomonas
In the case of B8, the “Degradation in % of 6-cyclopentyl-N4-(2,3,4,5,6-pentafluorophenyl)-1,3,5-triazine-2,4-diamine” value is reported as 0% and the “Degradation in % of Melamine” value is reported as 0%.

B9: N302E: mutated TriA variant of SEQ ID NO: 2 (protein)
chain: B1 chain with E248D, D251E, N302E
modifications: Pseudomonas
With B9 the “Degradation in % of 6-cyclopentyl-N4-(2,3,4,5,6-pentafluorophenyl)-1,3,5-triazine-2,4-diamine” value was 1% and the “Degradation in % of Melamine” value was 8%.

B10: Y304K: mutated TriA variant of SEQ ID NO: 2 (protein)
chain: B1 chain with E248D, D251E, Y304K
modifications: Pseudomonas
For B10, the “Degradation in % of 6-cyclopentyl-N4-(2,3,4,5,6-pentafluorophenyl)-1,3,5-triazine-2,4-diamine” value was 0% and the “Degradation in % of Melamine” value was 2%.

B11: Q71T: mutated TriA variant of SEQ ID NO: 2 (protein)
chain: B1 chain with Q71T, E248D, D251E
modifications: Pseudomonas
In the case of B11, the “Degradation in % of 6-cyclopentyl-N4-(2,3,4,5,6-pentafluorophenyl)-1,3,5-triazine-2,4-diamine” value is reported as 0% and the “Degradation in % of Melamine” value is reported as 0%.

B12: ΔS129_A130: TriA deletion variant of SEQ ID NO: 2 (protein)
chain: MQTLSIQHGTLVTMDQYRRVLGDSWVHVQDGRIVALGVHAESVPPPADRVIDARGKVVLPGFINAHTHVNQILLRGGPSHGRQLYDWLFNVLYPGQKAMRPEDVAVAVRLYCAEAVRSGITTINDNADIYPGNIEAAMAVYGEVGVRVVYARMFFDRMDGRIQGYVDALKARSPQVELCSIMEETAVAKDRITALSDQYHGTAGGRISVWPAPAITPAVTVEGMRWAQAFARDRAVMWTLHMAESDHDERLHWMSPAEYMECYGLLDERLQVAHCVYFDRKDVRLLHRHNVKVASQVVSNAYLGSGVAPVPEMVERGMAVGIGTDDGNCNDSVNMIGDMKFMAHIHRAVHRDADVLTPEKILEMATIDGARSLGMDHEIGSIETGKRADLILLDLRHPQTTPHHHLAATIVFQAYGNEVDTVLIDGNVVMENRRLSFLPPERELAFLEEAQSRATAILQRANMVANPAWRSL
modifications: Pseudomonas
For B12, the “Degradation in % of 6-cyclopentyl-N4-(2,3,4,5,6-pentafluorophenyl)-1,3,5-triazine-2,4-diamine” value was 3% and the “Degradation in % of Melamine” value was 0%.

B13: ΔA130_I131: TriA deletion variant of SEQ ID NO: 2 (protein)
chain: B12 chain with I129S
modifications: Pseudomonas
In the case of B13, the “Degradation in % of 6-cyclopentyl-N4-(2,3,4,5,6-pentafluorophenyl)-1,3,5-triazine-2,4-diamine” value is reported as 0% and the “Degradation in % of Melamine” value is reported as 3%.

B14: ΔA170_S182: TriA deletion variant of SEQ ID NO: 2 (protein)
chain: MQTLSIQHGTLVTMDQYRRVLGDSWVHVQDGRIVALGVHAESVPPPADRVIDARGKVVLPGFINAHTHVNQILLRGGPSHGRQLYDWLFNVLYPGQKAMRPEDVAVAVRLYCAEAVRSGITTINDNADSAIYPGNIEAAMAVYGEVGVRVVYARMFFDRMDGRIQGYVDIMEETAVAKDRITALSDQYHGTAGGRISVWPAPAITPAVTVEGMRWAQAFARDRAVMWTLHMAESDHDERLHWMSPAEYMECYGLLDERLQVAHCVYFDRKDVRLLHRHNVKVASQVVSNAYLGSGVAPVPEMVERGMAVGIGTDDGNCNDSVNMIGDMKFMAHIHRAVHRDADVLTPEKILEMATIDGARSLGMDHEIGSIETGKRADLILLDLRHPQTTPHHHLAATIVFQAYGNEVDTVLIDGNVVMENRRLSFLPPERELAFLEEAQSRATAILQRANMVANPAWRSL
modifications: Pseudomonas
In the case of B14, the “Degradation in % of 6-cyclopentyl-N4-(2,3,4,5,6-pentafluorophenyl)-1,3,5-triazine-2,4-diamine” value is reported as 2% and the “Degradation in % of Melamine” value is reported as 0%.

B15: ΔR174_L180: TriA deletion variant of SEQ ID NO: 2 (protein)
chain: MQTLSIQHGTLVTMDQYRRVLGDSWVHVQDGRIVALGVHAESVPPPADRVIDARGKVVLPGFINAHTHVNQILLRGGPSHGRQLYDWLFNVLYPGQKAMRPEDVAVAVRLYCAEAVRSGITTINDNADSAIYPGNIEAAMAVYGEVGVRVVYARMFFDRMDGRIQGYVDALKACSIMEETAVAKDRITALSDQYHGTAGGRISVWPAPAITPAVTVEGMRWAQAFARDRAVMWTLHMAESDHDERLHWMSPAEYMECYGLLDERLQVAHCVYFDRKDVRLLHRHNVKVASQVVSNAYLGSGVAPVPEMVERGMAVGIGTDDGNCNDSVNMIGDMKFMAHIHRAVHRDADVLTPEKILEMATIDGARSLGMDHEIGSIETGKRADLILLDLRHPQTTPHHHLAATIVFQAYGNEVDTVLIDGNVVMENRRLSFLPPERELAFLEEAQSRATAILQRANMVANPAWRSL
modifications: Pseudomonas
With B15 the “Degradation in % of 6-cyclopentyl-N4-(2,3,4,5,6-pentafluorophenyl)-1,3,5-triazine-2,4-diamine” value was 0% and the “Degradation in % of Melamine” value was 1%.
